Columns and labels:
[1] = molecular target: T1, prostate-specific antigen (PSA) (human, UniProt P07288 25-261); experiment: ELONA (direct); 3.9-500 nM aptamer, 5 mM MgCl2; ELONA: PSA 250 ng/well adsorbed; aptamers 3.9-500 nM in PBS + 5 mM MgCl2, 1 h at 37 C; block 3% BSA + 100 nM ssDNA mix; wash PBS 0.05% Tween-20; settings: protein: commercial; label: biotin
[2] = molecular target: T1, prostate-specific antigen (PSA); experiment: ELONA (direct); significant signal from 250 nM, 5 mM MgCl2; ELONA: PSA 250 ng/well adsorbed; aptamers 3.9-500 nM in PBS + 5 mM MgCl2, 1 h at 37 C; block 3% BSA + 100 nM ssDNA mix; wash PBS 0.05% Tween-20; settings: protein: commercial; label: biotin; stem-loops nt 4-14 and 17-30 (predicted)
[3] = molecular target: T1, prostate-specific antigen (PSA); experiment: ELONA (direct); significant signal from 250 nM; affinity comparable to AS2; 5 mM MgCl2; ELONA: PSA 250 ng/well adsorbed; aptamers 3.9-500 nM in PBS + 5 mM MgCl2, 1 h at 37 C; block 3% BSA + 100 nM ssDNA mix; wash PBS 0.05% Tween-20; settings: protein: commercial; label: biotin; 15 bp duplex at 3' end of AS2-tail, 5' overhang 32 nt of AS2-tail
[4] = molecular target: T1, prostate-specific antigen (PSA); experiment: DLS and plasmon shift (aggregate disassembly); response down to 10 fM PSA in buffer, 1 pM in filtered plasma; ELONA: PSA 250 ng/well adsorbed; aptamers 3.9-500 nM in PBS + 5 mM MgCl2, 1 h at 37 C; block 3% BSA + 100 nM ssDNA mix; wash PBS 0.05% Tween-20; settings: protein: commercial; label: US-AuNP; 15 bp duplex at 3' end of AS2-tail, 5' overhang 32 nt; about 8 ssDNA per particle

T1 sequence (P07288 25-261): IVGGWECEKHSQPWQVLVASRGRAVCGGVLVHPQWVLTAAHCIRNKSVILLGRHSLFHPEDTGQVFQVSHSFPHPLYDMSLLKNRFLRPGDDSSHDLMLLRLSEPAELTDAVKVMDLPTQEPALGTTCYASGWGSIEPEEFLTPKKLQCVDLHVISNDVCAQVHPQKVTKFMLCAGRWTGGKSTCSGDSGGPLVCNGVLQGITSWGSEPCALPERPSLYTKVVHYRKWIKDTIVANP

ATTAAAGCTCGCCATCAAATAGC (ssDNA, biotin) [aPSA-biotin]: no binding [1].

GGGCGGGGCGGACGAGACAGTAAGGGCTGTGGGTGTGGTG (structured_DNA, 3' biotin) [AS2-biotin]: binds [2].

B1: AS2-tail-biotin:RevAS2 (mixed)
DNA: GGGCGGGGCGGACGAGACAGTAAGGGCTGTGGGTGTGGTGTTTTTTT
?: AAAAAAACACCACAC
modifications: 3' biotin on AS2-tail
B1: binds [3].

B2: AS2-tail-thio:RevAS2-thio (AS2-US-AuNP-Aggregate) (mixed)
DNA: GGGCGGGGCGGACGAGACAGTAAGGGCTGTGGGTGTGGTGTTTTTTT
?: AAAAAAACACCACAC
modifications: 3' thiol on AS2-tail, 5' thiol on RevAS2; conjugated to gold nanoparticles
B2: binds [4].

Source: PMC12787490, “PSA-Responsive Aptamer-Based Switchable Aggregates of Ultrasmall Gold Nanoparticles”
